# Target: CD3-Fc
# Assay: SPR (Biacore T200, 25 C), CD3-Fc captured on anti-hFc CM5 chip, antibody as analyte, 1:1 model
row,Binder,Kd [nM]
1,"anti-CD3 antibody designated as CD3hi (antibody, V domains shown) VH: EVQLVESGGGLVQPGGSLKLSCAASGFTFNTYAMNWVRQASGKGLEWVGRIRSKYNNYATYYADSVKDRFTISRDDSKSTLYLQMNSLKTEDTAVYYCVRHGNFGNSYVSWFAYWGQGTLVTVSS VL: QAVVTQEPSLTVSPGGTVTLTCRSSTGAVTTSNYANWVQQKPGQAPRGLIGGTNKRAPWTPARFSGSLLGDKAALTLSGAQPEDEAEYFCALWYSNLWVFGGGTKLTVL",16
2,"anti-CD3 antibody designated as CD3lo (antibody, V domains shown) VH: EVQLVESGGGLVQPGGSLKLSCAASGFTFNTYAMNWVRQASGKGLEWVGRIRSKYNNYATYYADSVKDRFTISRDDSKSTAYLQMNSLKTEDTAVYYCVRHGNFGNSYVSWFAYWGQGTLVTVSS VL: QAVVTQEPSLTVSPGGTVTLTCRSSTGAVTTSNYANWVQQKPGQAPRGLIGGTNKRAPWTPARFSGSLLGDKAALTLSGAQPEDEAEYFCALWYSNLWVFGGGTKLTVL",48
3,"anti-CD3 antibody designated as CD3med (antibody, V domains shown) VH: EVQLVESGGGLVQPGGSLKLSCAASGFTFNTYAMNWVRQASGKGLEWVGRIRSKYNNYATYYADSVKDRFTISRDDSKNTAYLQMNSLKTEDTAVYYCVRHGNFGNSYVSWFAHWGQGTLVTVSS VL: QAVVTQEPSLTVSPGGTVTLTCGSSTGAVTSSNYANWVQQKPGQAPRGLIGGTNKRAPWTPARFSGSLLGGKAALTLSGAQPEDEAEYYCALWYSNLWVFGGGTKLTVL",30
